The target of assay [1] is P22 coat protein (bacteriophage P22) (UniProt P26747). In words: SEC-MALS; P22-CYP VLPs from co-expression (pETDuet) in E. coli, purified; HPLC-MALS-RI on WTC-100S5 column, 50 mM phosphate pH 7.2, 100 mM NaCl, 200 ppm sodium azide; CYP-SP per capsid by Eq. 1 (capsid mass taken as 19,572 kDa, CYP-SP 71.5 kDa). On the technique in general: In gel filtration, larger molecules generally elute earlier.

Assay [2] shares this target. In words: SEC-MALS; P22-CYP VLPs from differential expression 2 (pBAD + pRSF; 0.125 % L-arabinose, then 0.3 mM IPTG) in E. coli, purified; HPLC-MALS-RI on WTC-100S5 column, 50 mM phosphate pH 7.2, 100 mM NaCl, 200 ppm sodium azide; CYP-SP per capsid by Eq. 1.
Assay [3] has the same target. In words: SEC-MALS; P22-CYP VLPs from differential expression 1 (pBAD + pRSF; 0.2 % L-arabinose, then 0.5 mM IPTG) in E. coli, purified; HPLC-MALS-RI on WTC-100S5 column, 50 mM phosphate pH 7.2, 100 mM NaCl, 200 ppm sodium azide; CYP-SP per capsid by Eq. 1.

Sequence of UniProt P26747 (P26747 whole entry): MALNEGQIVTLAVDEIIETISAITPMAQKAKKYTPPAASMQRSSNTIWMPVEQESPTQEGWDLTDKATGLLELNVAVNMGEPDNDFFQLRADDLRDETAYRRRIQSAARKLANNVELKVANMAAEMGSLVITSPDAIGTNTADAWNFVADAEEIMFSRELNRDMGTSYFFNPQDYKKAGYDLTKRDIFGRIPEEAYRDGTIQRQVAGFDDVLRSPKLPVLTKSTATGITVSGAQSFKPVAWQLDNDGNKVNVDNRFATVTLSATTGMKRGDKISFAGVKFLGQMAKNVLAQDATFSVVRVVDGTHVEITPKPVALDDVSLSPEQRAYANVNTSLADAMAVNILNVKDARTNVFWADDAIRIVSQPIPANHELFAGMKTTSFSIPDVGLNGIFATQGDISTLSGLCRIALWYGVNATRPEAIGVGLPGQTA

“CYPBM3 "21B3"-scaffold protein fusion (CYP-SP) (from UniProt P26748 141-303)”: the stoichiometry N (commonly the number of molecules, sites or subunits per partner or assembly) in assay [1] was determined as 156 CYP/capsid; in assay [2], 110 CYP/capsid; in assay [3], 130 CYP/capsid.

Values taken from publication PMC4599659.
